In one test the target is CRAF RBD (Homo sapiens) (UniProt P04049). The following applies: cited from earlier work.
The target in test [1] is CRAF RBD-CRD (Homo sapiens) (UniProt P04049). The test is described as follows: SPR. To be noted: cited from earlier work.
The target of test [2] is CRAF RBD-CRD-C2 (Homo sapiens) (UniProt P04049). To be noted: cited from earlier work.
Test [3] has as its target CRAF RBD-CRD (Homo sapiens) (UniProt P04049). To be noted: cited from earlier work.
Test [4] addresses KRAS4b residues 1–169 with N-terminal cysteine, Alexa Fluor 647-labeled, GMP-PNP-bound (UniProt P01116). The test is described as follows: MST; 10 μL of 5 nM Alexa Fluor 647-labeled GMP-PNP-bound KRAS mixed with 10 μL of serially diluted BRAF proteins (10 pM to 1 μM); 0.05% Tween-20; Monolith NT.115pico; three independent dilution series averaged.

Where two headings read alike, the source gives them in different places.

With KRAS (from UniProt P01116), the Kd with CRAF RBD (Homo sapiens) is 21.2 nM; in test [1], 188 nM; in test [2] it was 188 nM; in test [3], 190 nM.

“BRAF/14-3-3 (full length, active dimer) (from UniProt P15056 1-766) (complex)” had a Kd in test [4] of 106 nM.

Regarding “BRAF/MEK/14-3-3 (autoinhibited), as used for MST (from UniProt P15056 1-766; Q02750 1-393) (complex)”, the dissociation constant Kd in test [4] was 127 nM.

What is called Kd is the free concentration of one partner at which half of the binding sites on the other are occupied at equilibrium, for simple one-to-one binding.

The values are drawn from PMC10387098.
